± gives the standard error.
B1: library; numbered along this chain (parent)
chain: MATDAALRRLLRLHRTEIAVAVDSAFPLLHALADHDVVPEDKFQETLHLKEKEGCPQAFHALLSWLLTQDSTAILDFWRVLFKDYNLERYGRLQPILDSFPKDVDLSQPRKGRKPPAVPKALVPPPRLPTKRKASEEARAAAPAALTPRGTASPGSQLKAKPPKKPESSAEQQRLPLGNGIQTMSASVQRAVAMSSGDVPGARGAVEGILIQQVFESGGSKKCIQVGGEFYTPSKFEDSGSGKNKARSSSGPKPLVRAKGAQGAAPGGGEARLGQQGSVPAPLALPSDPQLHQKNEDECAVCRDGGELICCDGCPRAFHLACLSPPLREIPSGTWRCSSCLQATVQEVQPRAEEPRPQEPPVETPLPPGLRSAGEEVRGPPGEPLAGMDTTLVYKHLPAPPSAAPLPGLDSSALHPLLCVGPEGQQNLAPGARCGVCGDGTDVLRCTHCAAAFHWRCHFPAGTSRPGTGLRCRSCSGDVTPAPVEGVLAPSPARLAPGPAKDDTASHEPALHRDDLESLLSEHTFDGILQWAIQSMARPAAPFPS

Variants of: B1
Assay: AIRE transcriptional activation functional score (insulin promoter-GFP; nonsense median 0, synonymous median 1) (normalised score); higher = higher AIRE activity (more reporter activation)
Details: with insulin promoter-GFP reporter in HEK293
Experimental: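 Deep mutational scan of full-length human AIRE (codon-optimized cDNA, DT-POPCode NNN libraries over three regions) integrated at a Bxb1 landing pad in HEK293 cells carrying an insulin core promoter-GFP reporter at a Flp-In site. Cells were sorted for the top 10% GFP about 14 days after transfection. Variant frequency log-ratios (select vs non-select, TileSeq) were rescaled so that the nonsense median is 0 and the synonymous median is 1, then averaged over biological replicates.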

AIRE transcriptional activation functional score, by site and new letter:
R190: E 0.705 ± 0.16; T 0.755 ± 0.15; C 0.414 ± 0.13; M 0.19 ± 0.046; D 0.292 ± 0.32; P 0.955 ± 0.14; I 0.118 ± 0.15; Y 0.797 ± 0.12; F -0.277 ± 0.2; L 0.356 ± 0.36; H 0.858 ± 0.36; Q 1.24 ± 0.33; G 0.592 ± 0.14; V 0.094 ± 0.21; S 0.821 ± 0.34; K 0.53 ± 0.049; W 0.069 ± 0.047; N 1.15 ± 0.13; A 0.878 ± 0.41
Q182: A 1.52 ± 0.54; L 0.0585 ± 0.2; S 1.05 ± 0.52; D 0.345 ± 0.72; N 1.54 ± 0.41; G 0.423 ± 0.34; I -0.398 ± 0.24; T 1.69 ± 0.48; K 1.73 ± 0.34; F -0.279 ± 0.19; R 1.3 ± 0.36; Y 0.181 ± 0.057; V -0.0151 ± 0.32; W 0.0615 ± 0.37; E 1.46 ± 0.24; P 0.264 ± 0.28; M 0.383 ± 0.048; C 1.4 ± 0.33; H 1.91 ± 0.22
T183: C 1.48 ± 0.11; D 0.425 ± 0.043; Y -0.205 ± 0.25; P 0.392 ± 0.43; V 0.738 ± 0.28; H 0.652 ± 0.16; M 0.663 ± 0.087; S 0.952 ± 0.32; G 0.735 ± 0.22; K 0.924 ± 0.3; E 0.451 ± 0.27; W 0.659 ± 0.14; L 0.699 ± 0.17; I 0.211 ± 0.1; A 0.69 ± 0.4; R 0.948 ± 0.29; Q 0.469 ± 0.075; F 0.248 ± 0.33; N 1.18 ± 0.098
N179: H 1.97 ± 0.35; S 0.818 ± 0.51; D 0.42 ± 0.23; F 0.503 ± 0.13; C 1.26 ± 0.56; G 0.991 ± 0.43; L 0.991 ± 0.34; Q -0.585 ± 0.21; M 1.62 ± 0.043; R 1.52 ± 0.74; Y 1.15 ± 0.086; A 1.53 ± 0.52; P 1.71 ± 0.12; V 1.49 ± 0.36; K 1.14 ± 0.18; W -2.31 ± 0.17; T 1.79 ± 0.58; E 1.14 ± 0.4; I 1.15 ± 0.12
L177: G -0.4 ± 0.62; S 0.553 ± 0.33; K 1.09 ± 0.27; I 0.748 ± 0.51; E -0.132 ± 0.43; F 1.5 ± 0.34; M 1.57 ± 0.099; T 0.252 ± 0.31; Y 1.89 ± 0.44; Q 0.719 ± 0.33; N 0.575 ± 0.061; P 0.397 ± 0.62; R 0.707 ± 0.43; H 1.01 ± 0.47; W 2.38 ± 0.031; V 0.75 ± 0.67
Q189: G 0.415 ± 0.35; I 0.169 ± 0.21; S 1.21 ± 0.26; P 0.54 ± 0.2; F -0.181 ± 0.14; N 0.838 ± 0.34; A 1.25 ± 0.12; T 0.669 ± 0.27; R 0.813 ± 0.21; K 0.969 ± 0.27; H 0.892 ± 0.18; Y 0.0452 ± 0.053; C 0.0413 ± 0.066; L 0.207 ± 0.27; D 0.724 ± 0.17; V -0.071 ± 0.19; M -0.352 ± 0.059; E 1.01 ± 0.23; W -1.03 ± 0.16
A186: N 0.421 ± 0.2; P 0.846 ± 0.17; F -0.0353 ± 0.21; R 0.648 ± 0.28; I -0.146 ± 0.33; L 0.0294 ± 0.29; W 0.156 ± 0.039; C 1.29 ± 0.13; D 1.11 ± 0.061; V -0.207 ± 0.24; Y -0.165 ± 0.23; K 0.646 ± 0.09; E 0.734 ± 0.25; H 0.849 ± 0.093; G 0.548 ± 0.27; M 0.198 ± 0.13; S 0.95 ± 0.17; T 0.873 ± 0.31; Q 0.6 ± 0.13
M184: Q 0.653 ± 0.15; N 0.0346 ± 0.28; G 1.01 ± 0.16; P 0.519 ± 0.19; S 0.488 ± 0.41; D -0.962 ± 0.4; L 0.411 ± 0.29; I 0.983 ± 0.13; Y 0.481 ± 0.1; F 0.676 ± 0.1; W 0.275 ± 0.042; E -0.977 ± 0.11; R 0.932 ± 0.42; V 0.51 ± 0.29; A 0.129 ± 0.52; T 0.688 ± 0.47
M194: R 0.732 ± 0.29; I 1.08 ± 0.14; N 0.73 ± 0.081; G 0.75 ± 0.19; S 0.554 ± 0.26; L 0.99 ± 0.16; V 1.31 ± 0.28; A 0.708 ± 0.14; F 0.394 ± 0.074; T 0.367 ± 0.34; K 0.544 ± 0.15; H 0.96 ± 0.21; D -0.299 ± 0.48; C 0.639 ± 0.12; P 0.602 ± 0.37; W 0.214 ± 0.039; E 0.601 ± 0.086; Q 0.907 ± 0.12; Y 0.702 ± 0.18
V192: R 0.721 ± 0.25; N 0.244 ± 0.2; K 1.14 ± 0.042; T 0.917 ± 0.3; Q 0.811 ± 0.053; C 0.889 ± 0.52; M 1.08 ± 0.062; S 0.697 ± 0.32; A 0.598 ± 0.16; L 1.02 ± 0.1; Y 1.19 ± 0.039; D 0.613 ± 0.17; G 0.777 ± 0.18; E 0.516 ± 0.13; I 1.13 ± 0.36; F 0.922 ± 0.028; H 0.776 ± 0.17; W 0.522 ± 0.023; P 0.706 ± 0.37
I181: R 0.684 ± 0.36; S 0.834 ± 0.54; Y 1.13 ± 0.46; C 0.211 ± 0.088; D 0.3 ± 0.12; H -0.417 ± 0.21; F 1.59 ± 0.068; Q -0.331 ± 0.19; A 0.485 ± 0.14; L 0.717 ± 0.29; M 0.958 ± 0.058; W 1.14 ± 0.07; V 0.788 ± 0.34; K 0.076 ± 0.41; N 1.53 ± 0.38; P -1.22 ± 0.25; G 0.602 ± 0.39; E 0.0205 ± 0.7; T 0.242 ± 0.54
V188: P 0.629 ± 0.33; K 0.779 ± 0.31; I 1.01 ± 0.064; M 1.32 ± 0.044; L 1.24 ± 0.23; C 0.891 ± 0.073; A 0.635 ± 0.29; W 0.518 ± 0.034; N 0.669 ± 0.21; F 0.939 ± 0.095; Q 0.798 ± 0.092; Y 1.56 ± 0.16; E 0.556 ± 0.35; S 0.447 ± 0.28; G 0.504 ± 0.15; R 0.52 ± 0.24; H 0.687 ± 0.26; D 0.779 ± 0.13; T 0.434 ± 0.28
S187: P 0.621 ± 0.26; M 0.503 ± 0.045; K 0.853 ± 0.12; W 0.0947 ± 0.081; Y 0.152 ± 0.12; T 1.17 ± 0.14; N 0.716 ± 0.092; A 0.982 ± 0.22; E 0.48 ± 0.074; Q 0.823 ± 0.13; L 0.063 ± 0.27; D 0.711 ± 0.14; C 0.918 ± 0.059; G 0.706 ± 0.22; R 1.18 ± 0.17; V 0.398 ± 0.33; I 0.599 ± 0.29; H 1.28 ± 0.17; F -0.0306 ± 0.083
G178: W 0.64 ± 0.071; N 0.294 ± 0.24; Q 0.33 ± 0.56; V 1.28 ± 0.4; C 1.22 ± 0.6; F 1.08 ± 0.051; R 1.49 ± 0.85; T 1.11 ± 0.67; K 0.788 ± 0.31; E 0.493 ± 0.29; S 1.26 ± 0.51; D 0.549 ± 0.096; A 0.405 ± 0.5; P 0.532 ± 0.25; I 1.74 ± 0.37; M 1.65 ± 0.15; L 1.58 ± 0.25; Y 1.89 ± 0.3
S185: F 0.468 ± 0.24; D 0.436 ± 0.23; A 0.878 ± 0.34; H -0.313 ± 0.18; C 0.855 ± 0.08; P 0.302 ± 0.12; W 0.557 ± 0.095; Q 0.746 ± 0.13; Y 0.264 ± 0.11; R 0.854 ± 0.2; L -0.0826 ± 0.26; K 1 ± 0.13; N 0.832 ± 0.055; G 0.881 ± 0.2; E 0.209 ± 0.22; M -0.432 ± 0.26; V 0.26 ± 0.26; T 1.56 ± 0.21; I 0.353 ± 0.38
A191: C 1.08 ± 0.068; R 1.2 ± 0.24; H 1.25 ± 0.3; Y -0.337 ± 0.2; L 0.166 ± 0.29; K 0.485 ± 0.061; G 0.958 ± 0.38; T 1.27 ± 0.26; W 0.116 ± 0.052; D 0.948 ± 0.14; N 0.144 ± 0.39; V 0.157 ± 0.24; E 0.164 ± 0.45; P 0.647 ± 0.17; I -0.149 ± 0.19; F -0.339 ± 0.23; Q 0.489 ± 0.13; S 1.03 ± 0.35; M 0.662 ± 0.092
A193: D 1.03 ± 0.043; K 0.858 ± 0.056; C 1.39 ± 0.034; L 0.279 ± 0.17; T 1.15 ± 0.4; V 0.147 ± 0.18; P 0.42 ± 0.48; I 0.281 ± 0.29; Y 1.05 ± 0.18; W -1.35 ± 0.22; E 0.394 ± 0.18; R 0.93 ± 0.27; N 1.14 ± 0.099; H 1.81 ± 0.18; Q 1.88 ± 0.16; S 0.899 ± 0.26; F 0.268 ± 0.33; M 0.563 ± 0.053; G 0.791 ± 0.26
G180: T 0.839 ± 0.76; L 0.0432 ± 0.4; Y 0.548 ± 0.48; E 0.208 ± 0.15; A 1.21 ± 0.29; R 1.63 ± 0.47; V 0.54 ± 0.23; I 0.248 ± 0.49; F -0.106 ± 0.1; W -0.0444 ± 0.1; N 1.23 ± 0.37; D 0.474 ± 0.23; H 1.31 ± 0.17; S 0.929 ± 0.73; P -1.38 ± 0.43; M 0.445 ± 0.06; K 1.02 ± 0.72; C 1.24 ± 0.26

Source: the supplement of paper PMC12667976
